B1: Transcriptional regulator LdrP (Thermus thermophilus (strain HB8 / ATCC 27634 / DSM 579)), Q53W63 (parent)
chain: MKRFARKETIYLRGEEARTLYRLEEGLVRVVELLPDGRLITLRHVLPGDYFGEEALEGKAYRYTAEAMTEAVVQGLEPRAMDHEALHRVARNLARQMRRVQAYEAHLQTGELRARIARYLLFLADTPLSARDRQGIYVTVSHEEIADATASIRESVSKVLADLRREGLIATAYRRVYLLDLAALEREAGSALEAA
partner: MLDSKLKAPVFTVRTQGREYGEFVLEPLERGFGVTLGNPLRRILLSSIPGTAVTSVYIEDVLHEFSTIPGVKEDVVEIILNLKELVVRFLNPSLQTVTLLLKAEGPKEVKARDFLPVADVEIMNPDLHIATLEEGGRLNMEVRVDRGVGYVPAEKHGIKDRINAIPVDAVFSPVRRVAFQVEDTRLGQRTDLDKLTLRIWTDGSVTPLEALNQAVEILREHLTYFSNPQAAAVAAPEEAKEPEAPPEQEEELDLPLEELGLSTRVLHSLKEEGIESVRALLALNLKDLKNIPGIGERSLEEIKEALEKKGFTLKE

Variants of: B1
Details: with rpoa_thet8 rpoA

Row | effect of a mutation on the interaction | Variant
1 | disrupting interaction strength | D125K
2 | disrupting interaction strength | E185K
